The values below come from the supplement of paper PMC9732359.

± gives the uncertainty stated by the source.

A short description of this series: protein stability index of a GFP-peptide fusion (yeast GPS) (PSI 1-4); higher = more stable; sorted into four equal gates, so the index is relative within each strain. The essentials: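 For each peptide, the protein stability index sums the read frequency in every gate after multiplying it by the gate number. Read frequencies came from plasmids that were PCR-amplified from each gate and Illumina-sequenced, with reads assigned to strains by barcodes. The gates were four equal bins of GFP/Cherry fluorescence ratio applied to mid-log yeast in leucine-free medium carrying a pooled library of tiled 17-residue yeast protein peptides fused downstream of GFP on a Cherry-expressing plasmid.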

On to LLVDIQKYNQIQKQIET [SMC2], for which the protein stability index is 1.92 ± 0.055 (doa10∆), 1.86 ± 0.05 (pdr5∆), 2.2 ± 0.081 (san1∆) and 1.65 ± 0.04 (ubr1∆).
On the same counts, the results for VILFDSDWNPQADLQAM [ISW2] are 3.12 ± 0.088, 2.38 ± 0.08, 2.84 ± 0.11 and 2.15 ± 0.057.
Take SSTITGDVVLAAAYSHE [RPL5]: the protein stability index was found to be 2.32 ± 0.056 (doa10∆), 2.56 ± 0.06 (pdr5∆), 2.61 ± 0.057 (san1∆) and 2.31 ± 0.058 (ubr1∆).
On the same counts, the results for GNDAKPAKVEDVQKSSD [YLR335W/NUP2] are 3.3 ± 0.064, 3.2 ± 0.058, 3.17 ± 0.052 and 3.13 ± 0.051.
LKTEKIFKEINEHSTSY [FAS1] showed a protein stability index (doa10∆) of 3.29 ± 0.22 and a protein stability index (pdr5∆) of 3.48 ± 0.2.
LKYPELSIKNSFIINFI [NUT1]: the protein stability index (doa10∆) turned out to be 1.99 ± 0.062, the protein stability index (pdr5∆) amounted to 2 ± 0.045, the protein stability index (san1∆) is 2.13 ± 0.076 and the protein stability index (ubr1∆) was found to be 1.94 ± 0.036.
For the sequence QLKWAQNTIDDTEMKMK [YIL149C/MLP2], the protein stability index by setting is: (doa10∆) 2.15 ± 0.046; (pdr5∆) 2.88 ± 0.056; (san1∆) 2.71 ± 0.059; (ubr1∆) 2.74 ± 0.059.
Regarding EVVSEAINIMNRSNDAL [FAS2], the protein stability index reads like this: (doa10∆) 3.32 ± 0.12; (pdr5∆) 3.44 ± 0.13; (san1∆) 3.44 ± 0.049; (ubr1∆) 3.31 ± 0.16.
On the same counts, the results for QNPKLFQTIFSKQDLIH [SIN4] are 2.43 ± 0.058, 2.02 ± 0.046, 2.02 ± 0.085 and 2.02 ± 0.051.
Turning to FNGIENQSAYEWNGKSF [ISW2], the protein stability index turned out to be 3.09 ± 0.12 (doa10∆), 3.25 ± 0.2 (pdr5∆), 3.31 ± 0.076 (san1∆) and 3.22 ± 0.12 (ubr1∆).
Sequence QAQAQAQAQAQAQAQAH [GAL11] gave a protein stability index (doa10∆) of 2.84 ± 0.071, a protein stability index (pdr5∆) of 3.05 ± 0.084, a protein stability index (san1∆) of 2.84 ± 0.084 and a protein stability index (ubr1∆) of 3.1 ± 0.1.
On the same counts, the results for TKPSDLTIKDIVLGVKD [RPO21] are 2.51 ± 0.085, 2.15 ± 0.1, 1.95 ± 0.15 and 2.83 ± 0.044.
On the same counts, the results for KLHMGTEDVRLAPELNQ [RPL31B] are 2.81 ± 0.061, 3 ± 0.067, 2.86 ± 0.049 and 3.05 ± 0.04.
On the same counts, the results for VNDRSDISDSEGGLFEC [PCI8] are 3.38 ± 0.2, 3.11 ± 0.12, 3.45 ± 0.071 and 3.08 ± 0.11.
On to IQEANSVDMSALKDPQT [RIP1], for which the protein stability index reads like this: (pdr5∆) 3.43 ± 0.21; (ubr1∆) 3.26 ± 0.077.
NAPAWFKLSSESVIEQI [RPS13] gave a protein stability index (doa10∆) of 1.98 ± 0.064, a protein stability index (pdr5∆) of 1.73 ± 0.054, a protein stability index (san1∆) of 2.34 ± 0.13 and a protein stability index (ubr1∆) of 2.48 ± 0.067.
YIRKLISSGLLYLQDSN [SRB8]: the protein stability index reads like this: (doa10∆) 1.63 ± 0.068; (pdr5∆) 1.21 ± 0.093; (san1∆) 1.18 ± 0.11; (ubr1∆) 1.11 ± 0.061.
Turning to TKTVKRASKALIERYYP [RPS17A], under “pdr5∆”, the protein stability index was determined as 2.57 ± 0.21.
LRAAQQQWGNDFYKRDP [FAS2]: the protein stability index was determined as 2.44 ± 0.068 (doa10∆), 2.77 ± 0.051 (pdr5∆), 2.32 ± 0.12 (san1∆) and 2.71 ± 0.047 (ubr1∆).
LDRIPMHSYFIFKDLVT [COB]: the protein stability index is, setting by setting: (doa10∆) 1.92 ± 0.11; (pdr5∆) 1.91 ± 0.12; (san1∆) 1.88 ± 0.12; (ubr1∆) 1.67 ± 0.069.
For PANNHQLGLQTVIRGNS [SMX2], the protein stability index is 3.02 ± 0.077 (doa10∆), 3.19 ± 0.086 (pdr5∆), 2.91 ± 0.074 (san1∆) and 2.85 ± 0.053 (ubr1∆).
On the same counts, the results for NLRTQVTQQKRSLDENR [SMC1] are 3.24 ± 0.12, 3.09 ± 0.066, 2.91 ± 0.092 and 3.07 ± 0.086.
On the same counts, the results for FFEMLISKSLTFSQESG [RRI2] are 2.12 ± 0.082, 1.45 ± 0.059, 1.25 ± 0.12 and 1.66 ± 0.13.
On the same counts, the results for NRLSRIHLYMLTFHTLK [YLR018C/POM34] are 1.42 ± 0.068, 1.58 ± 0.06, 1.54 ± 0.12 and 1.44 ± 0.047.
As to LYRYRFDPFQAVSRSMT [ECM29], the protein stability index is 2.57 ± 0.067 (doa10∆), 2.65 ± 0.049 (pdr5∆), 2.76 ± 0.057 (san1∆) and 2.74 ± 0.043 (ubr1∆).
On the same counts, the results for TDKSNSPIGFTNSPQIS [SMC2] are 3.02 ± 0.05, 3.16 ± 0.054, 3.03 ± 0.043 and 3.03 ± 0.043.
On the same counts, the results for ERNEQEREIMNDHSKSA [SWI3] are 3.27 ± 0.069, 3.33 ± 0.066, 3.1 ± 0.092 and 3.48 ± 0.084.
